According to paper PMC10022743:

Tests used:
Test in all cases: immunoprecipitation followed by mass spectrometry
Conditions in all cases: 2 h EBSS and 300 nM Torin 1; YKT6 siRNA-treated HEK293T WT cells; read off a plot
SEC24C = molecular target: SEC24C
SNAP23 = molecular target: SNAP23
BET1 = molecular target: BET1
VTI1B = molecular target: VTI1B
NSF = molecular target: NSF
NAPA = molecular target: NAPA
SEC22B = molecular target: SEC22B
VAMP8 = molecular target: VAMP8
STX5 = molecular target: STX5

Substance | other: Log2 T156A : WT ratio (SEC24C) [log2] | other: Log2 T156A : WT ratio (SNAP23) [log2] | other: Log2 T156A : WT ratio (BET1) [log2] | other: Log2 T156A : WT ratio (VTI1B) [log2] | other: Log2 T156A : WT ratio (NSF) [log2] | other: Log2 T156A : WT ratio (NAPA) [log2] | other: Log2 T156A : WT ratio (SEC22B) [log2] | other: Log2 T156A : WT ratio (VAMP8) [log2] | other: Log2 T156A : WT ratio (STX5) [log2] | other: Log2 T156E : WT ratio (SEC24C) [log2] | other: Log2 T156E : WT ratio (SNAP23) [log2] | other: Log2 T156E : WT ratio (BET1) [log2] | other: Log2 T156E : WT ratio (VTI1B) [log2] | other: Log2 T156E : WT ratio (NSF) [log2] | other: Log2 T156E : WT ratio (NAPA) [log2] | other: Log2 T156E : WT ratio (SEC22B) [log2] | other: Log2 T156E : WT ratio (VAMP8) [log2] | other: Log2 T156E : WT ratio (STX5) [log2]
HA–YKT6-WT (full-length, siRNA-resistant) (from UniProt O15498) T156A | 0.67 | 2.8 | 0.27 | 1.4 | 2.3 | 1.6 | 1.9 | 1 | 1.2 | – | – | – | – | – | – | – | – | –
HA–YKT6-WT (full-length, siRNA-resistant) (from UniProt O15498) T156E | – | – | – | – | – | – | – | – | – | 0.18 | -1.5 | -4.4 | -0.7 | -0.3 | -0.8 | -1.3 | -2 | -0.7
